From article PMC2930068
Like-named read-outs stand apart in the source and are kept apart here. Square brackets hold non-standard residues; d marks the D form. Ends that are not written are not given here. pS = N[C@@H](COP(=O)(O)O)C(=O)O

Experiments:
[1] = target: importin α5 (79-538) in the ITC cell (human) (UniProt P52294); experiment: ITC
[2] = target: importin α5 (79-538) in the ITC cell (human) (UniProt P52294); experiment: ITC; remark: listed apart in the source

Row | Binder | Kd [1] | dH [1] | Kd [2]
1 | KRPRSPSS (not fully specified) [unphosphorylated EBNA-1 NLS peptide (379-KRPRSPSS-386)] | 30 µM | 6.55 kcal/mol | 60 µM
2 | KRPRSP[pS]S [phosphorylated EBNA-1 NLS peptide (379-KRPRSPpSS-386)] |  | 6.95 kcal/mol | 
